Measured values: patent publication US20090269277A1
One block for each molecule: values may come before it.

Experiments:
CEA = CEA (UniProt P06731); test: SE-HPLC of 125I-TF2 mixed with a 20-fold molar excess of CEA
[1] = molecular target: recombinant human RIIalpha (commercial sample) (human) (UniProt P13861); test: equilibrium SE-HPLC
Sequence of recombinant human RIIalpha (commercial sample) (human) (P13861 whole entry): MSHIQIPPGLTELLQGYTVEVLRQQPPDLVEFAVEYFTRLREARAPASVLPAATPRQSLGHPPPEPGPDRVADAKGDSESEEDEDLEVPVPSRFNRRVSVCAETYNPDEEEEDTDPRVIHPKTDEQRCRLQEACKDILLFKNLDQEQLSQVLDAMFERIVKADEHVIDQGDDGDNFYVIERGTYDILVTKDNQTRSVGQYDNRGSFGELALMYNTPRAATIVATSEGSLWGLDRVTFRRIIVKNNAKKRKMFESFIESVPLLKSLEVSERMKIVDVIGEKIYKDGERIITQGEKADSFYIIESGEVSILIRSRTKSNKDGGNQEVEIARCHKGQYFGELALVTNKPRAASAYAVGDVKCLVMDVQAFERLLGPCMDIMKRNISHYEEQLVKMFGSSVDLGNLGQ

Sequence of CEA (P06731 35-685 limits assumed): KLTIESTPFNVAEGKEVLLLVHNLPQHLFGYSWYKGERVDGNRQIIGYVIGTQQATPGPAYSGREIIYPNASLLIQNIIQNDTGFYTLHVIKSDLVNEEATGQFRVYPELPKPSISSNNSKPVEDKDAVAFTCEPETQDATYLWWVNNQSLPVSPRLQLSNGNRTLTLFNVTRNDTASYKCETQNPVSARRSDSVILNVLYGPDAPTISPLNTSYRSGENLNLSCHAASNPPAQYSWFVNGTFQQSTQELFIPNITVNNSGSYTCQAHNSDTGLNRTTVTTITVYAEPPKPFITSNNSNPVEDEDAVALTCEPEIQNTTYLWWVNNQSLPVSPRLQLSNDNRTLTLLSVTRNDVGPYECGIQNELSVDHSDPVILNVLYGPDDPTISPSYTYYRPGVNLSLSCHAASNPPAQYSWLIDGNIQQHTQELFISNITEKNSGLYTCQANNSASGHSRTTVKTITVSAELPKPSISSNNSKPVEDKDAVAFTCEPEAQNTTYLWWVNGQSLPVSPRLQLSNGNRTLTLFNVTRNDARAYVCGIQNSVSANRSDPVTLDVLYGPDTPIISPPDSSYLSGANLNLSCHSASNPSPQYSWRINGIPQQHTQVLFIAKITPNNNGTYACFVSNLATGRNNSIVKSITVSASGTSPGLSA

percent of labeled TF2 shifted to a high molecular weight species (CEA): 95%
Molecule: TF2 (bispecific antibody)

Kd [1]: 30 nM
B1: h679-Fab-AD1 (Fab, part only; not given: h679 Fd and light chain, part only)
heavy, part: PKSCGGGGSGGGGSGGGGSQIEYLAKQIVDNAIQQA
